Reference: PMC12955206

Target: myeloperoxidase (MPO) (human, UniProt P05164 49-745)
Assay: fluorescence strand displacement

Chain of myeloperoxidase (MPO) (P05164 49-745): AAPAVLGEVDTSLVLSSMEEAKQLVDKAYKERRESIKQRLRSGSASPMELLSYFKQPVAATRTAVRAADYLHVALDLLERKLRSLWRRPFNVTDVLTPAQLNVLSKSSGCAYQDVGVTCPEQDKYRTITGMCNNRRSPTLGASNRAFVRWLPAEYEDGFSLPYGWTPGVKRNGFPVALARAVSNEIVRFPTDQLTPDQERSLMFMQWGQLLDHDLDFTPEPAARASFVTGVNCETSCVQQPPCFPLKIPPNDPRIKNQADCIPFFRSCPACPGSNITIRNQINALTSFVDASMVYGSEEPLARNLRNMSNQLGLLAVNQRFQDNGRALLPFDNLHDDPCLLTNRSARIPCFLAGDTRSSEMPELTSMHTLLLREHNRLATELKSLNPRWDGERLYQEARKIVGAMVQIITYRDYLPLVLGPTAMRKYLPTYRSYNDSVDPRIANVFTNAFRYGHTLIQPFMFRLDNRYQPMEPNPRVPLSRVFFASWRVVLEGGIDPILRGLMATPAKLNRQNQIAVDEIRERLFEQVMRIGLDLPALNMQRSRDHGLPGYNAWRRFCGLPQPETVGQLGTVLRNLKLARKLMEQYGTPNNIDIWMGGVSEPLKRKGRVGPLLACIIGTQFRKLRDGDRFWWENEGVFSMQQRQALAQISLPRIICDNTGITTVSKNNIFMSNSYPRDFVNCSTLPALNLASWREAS

B1: AptCy3/TBHQ2 duplex (MPO aptamer with trigger strand) (mixed)
DNA 1: CACCTAATACGACTCACTATAGCGGATCCGAAACGCTATTCGGATGGGGTTCCAGATACTAGAAAGAGCAA
DNA 2: CATCCGAATAGCGTTTCGGATC
modifications: internal Cy3-dT at position 45 of the aptamer (Table S1)
Q: Does B1 bind?
A: binds
